Measured values: publication PMC10010047

Target: insulin growth factor-1 receptor (IGF1R) (mouse (endogenous in mouse heart))
Test: BLI

B1: recombinant mouse SIRPα Fc chimera protein (rSIRPα) (Fc fusion)
chain: KELKVTQPEKSVSVAAGDSTVLNCTLTSLLPVGPIRWYRGVGPSRLLIYSFAGEYVPRIRNVSDTTKRNNMDFSIRISNVTPADAGIYYCVKFQKGSSEPDTEIQSGGGTEVYVLAKPSPPEVSGPADRGIPDQKVNFTCKSHGFSPRNITLKWFKDGQELHPLETTVNPSGKNVSYNISSTVRVVLNSMDVNSKVICEVAHITLDRSPLRGIANLSNFIRVSPTVKVTQQSPTSMNQVNLTCRAERFYPEDLQLIWLENGNVSRNDTPKNLTKNTDGTYNYTSLFLVNSSAHREDVVFTCQVKHDQQPAITRNHTVLGFAHSSDQGSMQTFPDNNATHNWN
B1 was tested. Which Kd did it give?
Its Kd is 147 µM.
